# Measurements: paper PMC7116727
# Target: S2 component of the furin-cleaved SARS-CoV-2 spike ectodomain ('2P' mutant) (SARS-CoV-2) (UniProt P0DTC2)
# Test: cryo-EM structure
substance,measurement,value
S2 component of the furin-cleaved SARS-CoV-2 spike ectodomain ('2P' mutant) (from UniProt P0DTC2) (domain or fragment),stoichiometry N,3
